Reference: the RNAGym collection of RNA variant scans (doi:10.1073/pnas.2313332121)
Variants at the floor of the assay were thinned out.

B1: TPR 5TU (parent)
chain: GGAUCUUCUCGAUCUAACAAAAAAGACAAAUCUGCCACAAAGCUUGAGAGCAUCUUCGGAUGCAGAGGCGGCAGCCUUCGGUGGCGCGAUAGCGCCAACGUUCUCAACUAUGACACGCAAAACGCGUGCUCCGUUGAAUGGAGUUUAUCAUG

Variants of: B1
Test: polymerase ribozyme fitness, log enrichment relative to wild type (log ratio); higher = more active; in vitro selection for triplet polymerase activity
Procedure, shortened: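 After PCR construction and transcription, each subunit's mutant library from a heterodimeric triplet polymerase ribozyme was annealed with a biotinylated primer, the partner subunit and triplets. Incubation was frozen, at −7 °C, and extended constructs were gel-excised, bound to streptavidin beads and amplified by RT-PCR, in one selection round done in triplicate. Fitness is the logarithm of a genotype's enrichment divided by that of the wild type, from inverse-variance-weighted replicate averages of Illumina-sequenced inputs and outputs. The base of the logarithm is 2, and genotypes needed ≥10 input reads and ≥1 read per output.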

Variant | polymerase ribozyme fitness (log ratio)
GGCUCUUCUCGAUCUAAUAAAAAAGACAAAUCUGCCACAAAGCUUGAGUGCAUCUUCGGAUCCAGCUGCGGCAGCCUUCGGUGGCGCGAUAGCGCAAAGGUUCUCAACUAUGACACGCAAAACGCGUGCUCCGCUGAAUGGAGUCUCUCAGG [A3C C18U A49U G62C A66C G67U C96A C99G U134C U145C A147C U151G] | ≤ -4.2
GGAUCUUCUCGAUCUAACAAAAAAGACAAUUCUGCCACAAAGCUUGAGAGCAUCUGCGGAUGCAGAGGCGGCAGCCUUCGGUGACGCGAUAGCGCUAACGUUCUCAACUAUGCCACGCAAAACGUGUGCUCCGAUGAAUGGUGUUUAUCAUG [A30U U56G G84A C96U A113C C125U U134A A142U] | ≤ -4.2
GGAUCUUCUCGAUCUAACAAAAAAGACAAAUCUGCCACAAAGCUUGAGAGCAUCUUCGGACGCAGAGGCGGCAGCAUUCGGUGGCGCGAUAGCGCCAACGUUCUCAACUAUGACACGCAAAACGCGUGCUCCGUUGAAUGGAGUUUAUCAUG [U61C C76A] | -2.59
GGAUCUUCUCGAUCUAACAAAAAAGACAAAUCUGCCACAAAGCUUGAGAACAUCUUCGGAUGCAGAGGCGGCAGCCUUCGGUGGCGCGAUGGCGCCAAUGUUGUCAACUAUGACACGCAAAACGCGUGCUCCGUUGAAUGGAGUUUAUCAUG [G50A A91G C99U C103G] | ≤ -4.2
GGAUCUUCUCGAUCUAACAAAAAAGACAAAUCUGCCACAAAGCUUGCAAGCAUCUUCGGAUGCAGAGGCGGCAGCCUUCGGUGGCGCGAUAGCGCCAACGUUCUCAACUAUGACACGCAAAACUCGUGCUCCGUUGAAUGGAGUUUAUCAUG [A47C G48A G124U] | -3.59
GGAUCUUCUCGAUCUAACAAAAAAGACAAAUCUGCCACAAAGCUUGAGAGCAUCUUCGGGUGCAGAGGCGGCAGCCUUCGGUGGCGCGAUAGCGCCAACGUUCUCAUCUAUGACACGCAAAACGCGUGCUGCGUUGAAUGGAGUUUAUCAUG [A60G A107U C131G] | ≤ -4.2
GGAUCUUCUCGAUCAAACAAAAAAGACAAAUCUGCCACAAAGCUUGAGAUCAUCUUCGGAUGCAGAGGCGGCAGCCUUCGGUGGCACGAUAGCGCCAACGUUCUCAACUAUGAUACGCAAAACGCGUGCUCCGUUGAAUGGAGUUUAUCAUG [U15A G50U G86A C114U] | -3.13
GGAUCUUCUCGAUCUUACAAAAAAGACAAAUCUGCCACAAAGCUUGAGAGCAUCUGCGGAUGCAGAGGCGGCAGCCUUCGGUGACGCGAUAGCGCCAACGUACUCAACUAUGACACGCAAAACGCGUGCUCCGUUGAAUGUAGUUUAUCAUG [A16U U56G G84A U102A G141U] | -3.81
GGAUCUUCUCGAUCUAACAAAAAAGACAAAUCUACCACAAAGCUUGAGAGCAUCUUCGGAUGCAGAGGCGGCAGUCUUCGGUGGCGCGAUAGCGCCAACGUUCUCAACUAUGACACGCAAAACGCGUGCUCCGUUGAAUGGAGUUUAUCAUG [G34A C75U] | -3.68
GGAUCGUCUCGAUUUAACAAAAAAGACAAAUCUGCCACAAAGCUUGAGAGCAUCUUCGGAUGCAGAGGCGGCAGCCUUCGGUGGCGCGAUAGCGCCAACGUUCUCAACUAUGACACGCAAAACGCGUGCUCCGUUGAAUGGAGUUUAUCAUG [U6G C14U] | -1.09
GGAUCUUCUCGAUCUAACAAAAAAGACAAAUCUGCCACAAAGCUUGAGAGCAUCUUCGGAAGCAGAGGCGGCAGCCUUCGGUGGCGCGAUAGCGCCAACGUUCUCAACUAUGACACGCAAAACGCGUGCUCCGUUGAAUGGAGUUUAUAAUG [U61A C149A] | ≤ -4.2
GGAUCUUCUCGAUCUAACAAAAAAGACAAAUCUGCCACAAAGCUUGAGAGCAUCUUCGGAUGCAGAGGCGGCGGCCUUCGGUGUCGCGAUAGCGCCAACGUUCUCAACUAUGACACGCAAAACGCGUGCUCCGUUGAAUGGAGUUUAUCAUG [A73G G84U] | -1.29
GGAUCUUCUCGAUCUUACAAAAAAGACAAAUCAGCCACAAAACUUGAGAGCAUCUUCGGAUGCAGAGGCGGCAGCCUUCGGUGGCGCGAUAGUGCCAACGUUCUCAACUAUGACACGCAAAACGCGUGCUCCGUUGAAUAGAGUUUAUCAUG [A16U U33A G42A C93U G140A] | ≤ -4.2
GGAUCUUCUCGGUCUAACAAAAAAGACAAAUCUGCCACAAAGCUUGAGAGCAUCUUCGGAUGCAGAGGCGGCAGCCUUCCCUGGCGCGAUAGCGCCAACGUUCUCAACUAUGACACGUAAAACGCGUGCUCCGUAGAAUGGAGUUUAUCAUG [A12G G80C G81C C118U U135A] | -1.66
GGAUCUUCUCGAUCUAACAAAAAAGACAAAUCUGCCACAUCGCUUGAGGGCAUCUUCGGAUGCAGAGGCGGCAGCCUUCGGUGGCGCGAUAGCGCAAACGUUCUCAACUAUGACACGCAAAACGCGUGCUCCGUUGAAUGGAGUUUAUCAUG [A40U A41C A49G C96A] | -1.32
GGAUCUUCUCGAUCUAACAAAAAAGACAAAUCUGCCACAAAGCUUGAGAGCAUCUUCGGAUGCAGAGGCGGCAGCCUUCGGUGGCGCGAUAGCGCCAACGUUCUCAACUAUGACACGCAAAACGCGUGCUCCAGUGAAUGGAGUUUAUCAUG [G133A U134G] | -2.81
GGAUCUUCUCCAUCUAACAAAAAAGACAAAUCUGCCACACAGCUUGAGAGCAUCUUCGGAUGCAGAGGCGGCAGCCUUCGGUUGCGCGAUAGCGCCAACGUUCUCAACUAUGACACGCGAAACGCGUGCUCCGUUGAAUGGAGUUUAUCAUG [G11C A40C G83U A119G] | -2.65
GGAUCUUCUCGAUCUAACAAAAAAGACAAAUCUGCCACAAACCAUGAGAGCGUCUUCGGAUGCAGAGGCUGCAGCCUUCGGUCGCGCGAUAGCGCCAACGUUCUCAACUAUGACACGCAAAACGCGUGCUCCGUUGAAUGGAGUUUAUCAUG [G42C U44A A52G G70U G83C] | ≤ -4.2
GGAUCUUCUCGAUCUAACAAAAAAGACAAAUCUGCCACAAAGGUUGAGAGCAUCUUCGGAUGCAGAGGCGGCAGCCUUCGGUGGCGCGAUAGCACCAACGUUCUCAACUAUGACACGCAAAACGCGUGCUCCGUUGAAUGGAGUUUAUCAUG [C43G G94A] | -3.81
